Results on one molecule are retold here after patent EP2544694B1 (Novelmed Therapeutics, Inc., dated 2018).

The experiment has as its target human properdin (human, UniProt P27918 28-469). The experiment can be described thus: cell-based or functional assay.

Sequence of human properdin (P27918 28-469 limits assumed): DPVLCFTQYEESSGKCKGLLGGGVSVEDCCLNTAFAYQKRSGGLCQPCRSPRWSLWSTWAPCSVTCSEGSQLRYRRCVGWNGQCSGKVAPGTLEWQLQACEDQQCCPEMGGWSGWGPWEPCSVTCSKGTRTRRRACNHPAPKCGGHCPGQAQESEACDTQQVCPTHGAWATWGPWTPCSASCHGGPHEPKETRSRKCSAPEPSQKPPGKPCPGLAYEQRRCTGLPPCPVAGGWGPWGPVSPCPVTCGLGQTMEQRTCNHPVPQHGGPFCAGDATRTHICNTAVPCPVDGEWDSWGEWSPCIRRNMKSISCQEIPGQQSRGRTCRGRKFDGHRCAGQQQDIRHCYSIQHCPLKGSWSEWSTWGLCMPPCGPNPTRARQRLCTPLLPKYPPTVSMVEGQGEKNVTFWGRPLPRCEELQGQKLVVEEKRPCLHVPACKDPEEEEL

B1: anti-properdin monoclonal antibody IgG (14G11) (antibody, V domains shown)
VH: QVTLKESGPGILQPSQTLSLTCSFSGFSLSTSGMGVGWIRQPSGKGLEWLAHIWWDDVKSYNPALKSRLTISKDTSSSQVFLRIASVDTADTATYYCARIGDGYYSFDYWGQGTTLTVSS
VL: DIVMTQSHKFMSTSVGDRVSISCKASQDVSDAVAWFQQKPGQSPKLLIYSPSYRYTGVPDRFTGSGSGTDFTFTISSVQAEDLAVYYCQQHYSTPWTFGGGTKLEIKR
With B1, the “IC50 of inhibition of AP dependent hemolysis of rRBC in 10% normal human serum” value amounted to 10 nM.
